Measured values taken from article PMC4120998 (Journal of the American Chemical Society, 2014).

Molecular target: CXCR4 on human Jurkat cells (Homo sapiens (endogenous, Jurkat cells), UniProt P61073)
Experiment: flow cytometry on cells

CXCR4 on human Jurkat cells, sequence (P61073 whole entry): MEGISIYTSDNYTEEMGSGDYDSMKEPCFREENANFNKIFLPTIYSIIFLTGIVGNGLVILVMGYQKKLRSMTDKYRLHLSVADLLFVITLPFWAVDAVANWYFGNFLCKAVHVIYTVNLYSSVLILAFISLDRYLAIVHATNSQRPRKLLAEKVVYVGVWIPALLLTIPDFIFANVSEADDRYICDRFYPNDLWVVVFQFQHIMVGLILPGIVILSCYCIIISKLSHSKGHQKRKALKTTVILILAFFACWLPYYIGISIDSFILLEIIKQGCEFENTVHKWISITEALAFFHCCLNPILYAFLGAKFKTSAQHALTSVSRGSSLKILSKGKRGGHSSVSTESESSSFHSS

- binding result: no binding (tested: 1 μg/mL)
B1: bovine antibody BLV1H12 (antibody)
VH: QVQLRESGPSLVKPSQTLSLTCTASGFSLSDKAVGWVRQAPGKALEWLGSIDTGGNTGYNPGLKSRLSITKDNSKSQVSLSVSSVTTEDSATYYCTSVHQETKKYQSCPDGYRERSDCSNRPACGTSDCCRVSVFGNCLTTLPVSYSYTYNYEWHVDVWGQGLLVTVSS
VL: QAVLNQPSSVSGSLGQRVSITCSGSSSNVGNGYVSWYQLIPGSAPRTLIYGDTSRASGVPDRFSGSRSGNTATLTISSLQAEDEADYFCASAEDSSSNAVFGSGTTLTVL
